This passage reports % positive cells and % positive cells (lectin + mucin) results from patent EP3418296A1.

Test [1] has as its target PA-1 cultured ovarian cells (unnamed cell surface lectin receptors). Description: lectin binding to cultured PA-1 cells, lectin alone (method not described).
The target in test [2] is Jurkat cultured leukemic cells (unnamed cell surface lectin receptors). Description: lectin binding to cultured Jurkat cells, lectin alone (method not described).
The target in test [3] is Molt 4 cultured leukemic cells (unnamed cell surface lectin receptors). Description: lectin binding to cultured Molt 4 cells, lectin alone (method not described).
Test [4] has as its target COLO 205 cultured colon cells (unnamed cell surface lectin receptors). Description: lectin binding to cultured COLO 205 cells, lectin alone (method not described).
The target of test [5] is native Sclerotium rolfsii lectin (SRL) (Sclerotium rolfsii). Description: inhibition by mucin of native lectin binding to PA-1 cells.
Test [6] shares this target. Description: inhibition by mucin of native lectin binding to Jurkat cells.
Test [7] has the same target. Description: inhibition by mucin of native lectin binding to Molt 4 cells.
Test [8] has the same target. Description: inhibition by mucin of native lectin binding to COLO 205 cells.

For the substance native Sclerotium rolfsii lectin (SRL), the % positive cells in test [1] is 96.7%; in test [2], 33.8%; in test [3] it was 88.5%; in test [4] it was 91.7%.

With mucin, the % positive cells (lectin + mucin) in test [5] was 1.63%; in test [6], 0.5%; in test [7] it was 0.24%; in test [8], 0.99%.
